Data on one substance can be found in paper doi:10.1101/827691.

This assay deals with α1-subCD3 as used in cross-linking and NMR (apparent molecular weight 27 kDa) (human) (UniProt P05023). Kind of assay: cross-linking.

With “N-terminally His6-tagged FGF2 (18 kDa isoform), wild type (from UniProt P09038-2 1-155) (natural protein)”, the stoichiometry N (FGF2 per α1-subCD3) was 1.
